This experiment has as its target chicken PHT1 (purified, wild type) (chicken).

Where a chain is given by its changes, count along the chain named.

Chain of chicken PHT1 (purified, wild type) (chicken) (chain, as listed by the source): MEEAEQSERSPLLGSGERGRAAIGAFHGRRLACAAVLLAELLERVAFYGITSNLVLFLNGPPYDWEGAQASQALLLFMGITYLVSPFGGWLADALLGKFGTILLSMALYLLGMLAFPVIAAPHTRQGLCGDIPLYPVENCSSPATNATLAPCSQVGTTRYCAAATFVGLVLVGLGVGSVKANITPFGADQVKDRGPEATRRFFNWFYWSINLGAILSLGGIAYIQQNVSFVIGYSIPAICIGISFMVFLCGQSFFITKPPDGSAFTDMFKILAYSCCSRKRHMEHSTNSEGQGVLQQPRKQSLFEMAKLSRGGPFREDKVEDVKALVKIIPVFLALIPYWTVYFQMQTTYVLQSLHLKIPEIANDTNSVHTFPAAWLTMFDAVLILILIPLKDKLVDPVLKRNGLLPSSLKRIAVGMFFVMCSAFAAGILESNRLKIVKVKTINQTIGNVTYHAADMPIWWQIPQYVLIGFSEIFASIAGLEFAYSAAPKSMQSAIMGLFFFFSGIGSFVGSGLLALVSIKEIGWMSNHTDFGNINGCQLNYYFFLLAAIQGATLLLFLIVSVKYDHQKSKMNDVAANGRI

B1: 24 [Sybody 24] (VHH)
VHH: QVQLVESGGGSVQAGGSLRLSCAASGAIERIWYLGWFRQAPGKEREGVAALITFTGHTYYADSVKGRFTVSLDNAKNTVYLQMNSLKPEDTALYYCAAAYDGWFSPLTTRRYRYWGQGTQVTVSA
As for B1, the binding result is reported as “binds”.

B2: 89 (VHH)
VHH: QVQLVESGGGLVQAGGSLRLSCAASGFSVNYSYMYWYRQAPGKEREWVAAISSWGWYTVYADSVKGRFTISRDNAKNTVYLQMNSLKPEDTAVYYCNVKDRGNDDSSYDYWGQGTQVTVSA
Take B2: the binding result is on record as “binds”.

B3: 1 [Sybody 1] (VHH)
VHH: QVQLVESGGGLVQAGGSLRLSCAASGFPVYSRHMYWYRQAPGKEREWVAAIASQGMKTWYADSVKGRFTISRDNAKNTVYLQMNSLKPEDTAVYYCNVKDTGQWWGLYDYWGQGTQVTVSA
B3: the binding result was “binds”.

B4: 66 (VHH)
VHH: QVQLVESGGGLVQAGGSLRLSCAASGFPVDTSYMYWYRQAPGKEREWVAAIWSWGQWTYYADSVKGRFTISRDNAKNTVYLQMNSLKPEDTAVYYCAVYVGQYYIGQGTQVTVSA
As for B4, the binding result was “binds”.

B5: 48 [Sybody 48] (VHH)
VHH: QVQLVESGGGLVQAGGSLRLSCAASGFPVRWHYMYWYRQAPGKEREWVAAISSHGTYTYYADSVKGRFTISRDNAKNTVYLQMNSLKPEDTAVYYCSVKDIGRWFSKYDYWGQGTQVTVSA
For the molecule B5, the binding result is recorded as “binds”.

B6: 94 (VHH)
VHH: QVQLVESGGGLVQAGGSLRLSCAASGFPVYKASMYWYRQAPGKEREWVAAINSKGWWTEYADSVKGRFTISRDNAKNTVYLQMNSLKPEDTAVYYCNVKDYGYEQLWYDYWGQGTQVTVSA
B6: the binding result is listed as “binds”.

B7: 87 (VHH)
VHH: QVQLVESGGGLVQAGGSLRLSCAASGFPVVHLSMAWYRQAPGKEREWVAAINSFGDHTHYADSVKGRFTISRDNAKNTVYLQMNSLKPEDTAVYYCNVKDSGWFWTQYDYWGQGTQVTVSA
In the case of B7, the binding result is “binds”.

B8: 25 [Sybody 25] (VHH)
VHH: QVQLVESGGGSVQAGGSLRLSCAASGNIWDIRYLGWFRQAPGKEREGVAALETQYGYTYYADSVKGRFTVSLDNAKNTVYLQMNSLKPEDTALYYCAAADIGYYTPLIHVGWYSYWGQGTQVTVSA
For B8, the binding result is recorded as “binds”.

B9: 31 [Sybody 31] (VHH)
VHH: QVQLVESGGGLVQAGGSLRLSCAASGFPVSQNWMWWYRQAPGKEREWVAAISSKGQTTHYADSVKGRFTISRDNAKNTVYLQMNSLKPEDTAVYYCNVKDWGAYWYSYDYWGQGTQVTVSA
Take B9: the binding result is on record as “binds”.

B10: 20 [Sybody 20] (VHH)
VHH: QVQLVESGGGSVQAGGSLRLSCAASGNIWTIRYLGWFRQAPGKEREGVAALDTASGSTYYADSVKGRFTVSLDNAKNTVYLQMNSLKPEDTALYYCAAAWWGYTVPLMWQHYYYWGQGTQVTVSA
As for B10, the binding result is “binds”.

B11: 3 [Sybody 3] (VHH)
VHH: QVQLVESGGGLVQAGGSLRLSCAASGFPVWAAYMFWYRQAPGKEREWVAAIGSTGWYTRYADSVKGRFTISRDNAKNTVYLQMNSLKPEDTAVYYCHVKDAGWNWWAYDYWGQGTQVTVSA
As to B11, the binding result is reported as “binds”.

B12: 101 (VHH)
VHH: B11 VHH with A32T, F35Y, Y57F, R59V, H97N, A101R, N104Q, W105T, W106A, A107Q
In the case of B12, the binding result is on record as “binds”.

B13: 88 (VHH)
VHH: B11 VHH with A31H, A32S, F35Y, R59T, H97N, A101Q, N104I, W105H, W106K, A107Q
Take B13: the binding result is recorded as “binds”.

B14: 44 [Sybody 44] (VHH)
VHH: B11 VHH with W30D, A32T, Y33S, F35Y, G52N, R59E, H97N, A101Y, N104Y, W105Y
On to B14, for which the binding result is “binds”.

B15: 30 [Sybody 30] (VHH)
VHH: QVQLVESGGGLVQAGGSLRLSCAASGFPVKSRRMYWYRQARGKEREWVAAIYSWGATTVYADSVKGRFTISRDNAKNTVYLQMNSLKPEDTAIYYCNVKDWGSWYQYYDYWGQGTQVTVSA
On to B15, for which the binding result is recorded as “binds”.

B16: 80 (VHH)
VHH: QVQLVESGGGSVQAGGSLRLSCAASGSISSITYLGWFRQAPGKEREGVAALFTWWGWTYYADSVKGRFTVSLDNAKNTVYLQMNSLKPEDTALYYCAAASEGMYWPLTKNHYSYWGQGTQVTVSA
Regarding B16, the binding result was “binds”.

B17: 2 [Sybody 2] (VHH)
VHH: QVQLVESGGGLVQAGGSLRLSCAASGFPVNTRTMHWYRQAPGKEREWVAAIYSSGQNTFYADSVKGRFTISRDNAKNTVYLQMNSLKPEDTAVYYCNVKDWGNIWEYDYWGQGTQVTVSA
B17: the binding result is “binds”.

B18: 23 [Sybody 23] (VHH)
VHH: QVQLVESGGGSAQAGGSLRLSCAASGNIAHIYYLGWFRQAPGKEREGVAALMTFTGWTYYADSVKGRFTVSLDNAKNTVYLQMNSLKPEDTALYYCAAATHGNWNPLQSDRYQYWGQGTQVTVSA
As for B18, the binding result is recorded as “binds”.

B19: 100 (VHH)
VHH: QVQLVESGGGLVQAGGSLRLSCAASGFPVAQRVMHWYRQAPGKEREWVAAIHSAGAQTFYADSVKGRFTISRDNAKNTVYLQMNSLKPEDTAVYYCNVKDDGKYYWLYDYWGQGTQVTVSA
On to B19, for which the binding result was “binds”.

B20: 19 [Sybody 19] (VHH)
VHH: QVQLVESGGGSVQAGGSLRLSCAASGNIHAINYLGWFRQAPGKEREGVAALDTWVGYTYYADSVKGRFTVSLDNAKNTVYLQMNSLKPEDTALYYCAAAEWGWQGPLKMRAYEYWGQGTQVTVSA
Turning to B20, the binding result is recorded as “binds”.

B21: 6 [Sybody 6] (VHH)
VHH: QVQLVESGGGLVQAGGSLRLSCAASGFPVYATWMYWYRQAPGKEREWVAAISSTGWSTYYADSVKGRFTISRDNAKNTVYLQMNSLKPEDTAVYYCNVKDVGFWWDQYDYWGQGTQVTVSA
As to B21, the binding result is listed as “binds”.

B22: 55 (VHH)
VHH: QVQLVESGGGLVQAGGSLRLSCAASGFPVAARWMRWYRQAPGKEREWVAAINSFGDYTEYADSVKGRFTISRDNAKNTVYLQMNSLKPEDTAVYYCNVKDYGSQWWAYDYWGQGTQVTVSA
As for B22, the binding result was “binds”.

B23: 57 (VHH)
VHH: B22 VHH with A30K, A31Q, R32K, F54N, K99R, S103D, W105L, W106F, A107E
As to B23, the binding result was “binds”.

B24: 58 (VHH)
VHH: B22 VHH with A30W, A31T, F54Y, K99R, Y101N, S103A, Q104Y, W106H, A107Y
For B24, the binding result is reported as “binds”.

Values taken from article PMC10502012, “Molecular basis of TASL recruitment by the peptide/histidine transporter 1, PHT1” (Nature Communications, 2023).
